PMC10663500, “High-throughput analysis system of interaction kinetics for data-driven antibody design” (Scientific Reports, 2023)

Tests used:
[1] = molecular target: T1, human programmed cell death protein 1 (hPD-1) C93S (aa 24-167) (Homo sapiens, UniProt Q15116, C93S); experiment: SPR; Carterra LSA; Fab from the ammonium sulfate precipitate of the culture supernatant immobilised on a NiHC200M chip; hPD-1 (1-1024 nM) or mPD-1-Fc (4-1024 nM) as analyte, fourfold dilution series, no regeneration; HBS-EP pH 7.4, 25 °C; medians over the spots of a construct, KD = koff/kon; details: one partner purified
T1 construct: made as a fusion with a TEV site and human Fc; the Fc was cut off with TEV protease; source: Expi293F, purified (Protein A, TEV cleavage of Fc, SEC; monomer fractions); not shown: Fc (human), C-terminal, cleaved
Procedure, shortened: (§1)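 Human PD-1 (1–1024 nM) or mouse PD-1-Fc (4–1024 nM), in fourfold series, was flowed without regeneration over Fabs captured in duplicate on a NiHC200M chip (Carterra LSA, 25 °C), using 10 min association and 5 min dissociation. The Fabs had been recovered from Brevibacillus culture supernatants by ammonium sulfate precipitation and redissolved in HBS-EP. For binding constants, KD was defined as koff/kon from per-construct medians, with rates fitted by the kdka model under slow- or fast-dissociation settings (best fit) and unconfirmed binders set to kon 10^3 […] and koff 10^−2 s^−1.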

[2] = molecular target: T2, mouse programmed cell death protein 1 Fc fusion protein (mPD-1-Fc), mPD-1 C60S (aa 25-167) (Mus musculus, UniProt Q02242, stabilised); experiment: as above; details: one partner purified
T2 construct: not cleaved; source: Expi293F, purified (Protein A, SEC; dimeric fraction); not shown: Fc (human), C-terminal, kept
Procedure, shortened: as §1

T1 sequence (Q15116 24-167 C93S): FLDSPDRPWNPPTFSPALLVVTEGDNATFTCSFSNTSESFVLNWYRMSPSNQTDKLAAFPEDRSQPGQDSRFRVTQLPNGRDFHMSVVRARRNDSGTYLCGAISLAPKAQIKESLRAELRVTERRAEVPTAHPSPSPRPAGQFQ

B1: toripalimab Fab L.S26A (Fab, V domains shown)
VH: QGQLVQSGAEVKKPGASVKVSCKASGYTFTDYEMHWVRQAPIHGLEWIGVIESETGGTAYNQKFKGRVTITADKSTSTAYMELSSLRSEDTAVYYCAREGITTVATTYYWYFDVWGQGTTVTVSS
VL: DVVMTQSPLSLPVTLGQPASISCRSAQSIVHSNGNTYLEWYLQKPGQSPQLLIYKVSNRFSGVPDRFSGSGSGTDFTLKISRVEAEDVGVYYCFQGSHVPLTFGQGTKLEIK
notes: as the heavy chain of Sm3; light chain of Sm3 with this change; numbers count from the chain's first residue; source: Brevibacillus, culture supernatant (ammonium sulfate precipitate); not shown: 6xHis, C-terminal, kept; 6xHN, C-terminal, kept
Kd [1]: 0.802 nM | koff [1]: 1.95e-05 s⁻¹ | kon [1]: 24300 M⁻¹ s⁻¹ | Kd [2]: 75 nM | koff [2]: 0.00379 s⁻¹ | kon [2]: 50500 M⁻¹ s⁻¹

B2: toripalimab Fab L.V30Y (Fab, V domains shown)
VH: QGQLVQSGAEVKKPGASVKVSCKASGYTFTDYEMHWVRQAPIHGLEWIGVIESETGGTAYNQKFKGRVTITADKSTSTAYMELSSLRSEDTAVYYCAREGITTVATTYYWYFDVWGQGTTVTVSS
VL: DVVMTQSPLSLPVTLGQPASISCRSSQSIYHSNGNTYLEWYLQKPGQSPQLLIYKVSNRFSGVPDRFSGSGSGTDFTLKISRVEAEDVGVYYCFQGSHVPLTFGQGTKLEIK
notes: as for B1
Kd [1]: 0.91 nM | koff [1]: 1.6e-05 s⁻¹ | kon [1]: 17600 M⁻¹ s⁻¹ | Kd [2]: 173 nM | koff [2]: 0.00719 s⁻¹ | kon [2]: 41500 M⁻¹ s⁻¹

B3: toripalimab Fab L.S28A (Fab, V domains shown)
VH: QGQLVQSGAEVKKPGASVKVSCKASGYTFTDYEMHWVRQAPIHGLEWIGVIESETGGTAYNQKFKGRVTITADKSTSTAYMELSSLRSEDTAVYYCAREGITTVATTYYWYFDVWGQGTTVTVSS
VL: DVVMTQSPLSLPVTLGQPASISCRSSQAIVHSNGNTYLEWYLQKPGQSPQLLIYKVSNRFSGVPDRFSGSGSGTDFTLKISRVEAEDVGVYYCFQGSHVPLTFGQGTKLEIK
notes: as for B1
Kd [1]: < 0.632 nM | koff [1]: < 1e-05 s⁻¹ | kon [1]: 15800 M⁻¹ s⁻¹ | Kd [2]: 96.3 nM | koff [2]: 0.00303 s⁻¹ | kon [2]: 31400 M⁻¹ s⁻¹

B4: toripalimab Fab L.I29Y (Fab, V domains shown)
VH: QGQLVQSGAEVKKPGASVKVSCKASGYTFTDYEMHWVRQAPIHGLEWIGVIESETGGTAYNQKFKGRVTITADKSTSTAYMELSSLRSEDTAVYYCAREGITTVATTYYWYFDVWGQGTTVTVSS
VL: DVVMTQSPLSLPVTLGQPASISCRSSQSYVHSNGNTYLEWYLQKPGQSPQLLIYKVSNRFSGVPDRFSGSGSGTDFTLKISRVEAEDVGVYYCFQGSHVPLTFGQGTKLEIK
notes: as for B1
Kd [1]: 30.4 nM | koff [1]: 0.000378 s⁻¹ | kon [1]: 12400 M⁻¹ s⁻¹ | Kd [2]: 80.6 nM | koff [2]: 0.00575 s⁻¹ | kon [2]: 71400 M⁻¹ s⁻¹

B5: toripalimab Fab L.S32A (Fab, V domains shown)
VH: QGQLVQSGAEVKKPGASVKVSCKASGYTFTDYEMHWVRQAPIHGLEWIGVIESETGGTAYNQKFKGRVTITADKSTSTAYMELSSLRSEDTAVYYCAREGITTVATTYYWYFDVWGQGTTVTVSS
VL: DVVMTQSPLSLPVTLGQPASISCRSSQSIVHANGNTYLEWYLQKPGQSPQLLIYKVSNRFSGVPDRFSGSGSGTDFTLKISRVEAEDVGVYYCFQGSHVPLTFGQGTKLEIK
notes: as for B1
Kd [1]: < 1.35 nM | koff [1]: < 1e-05 s⁻¹ | kon [1]: 7410 M⁻¹ s⁻¹ | Kd [2]: 185 nM | koff [2]: 0.0077 s⁻¹ | kon [2]: 41600 M⁻¹ s⁻¹

B6: toripalimab Fab L.I29A (Fab, V domains shown)
VH: QGQLVQSGAEVKKPGASVKVSCKASGYTFTDYEMHWVRQAPIHGLEWIGVIESETGGTAYNQKFKGRVTITADKSTSTAYMELSSLRSEDTAVYYCAREGITTVATTYYWYFDVWGQGTTVTVSS
VL: DVVMTQSPLSLPVTLGQPASISCRSSQSAVHSNGNTYLEWYLQKPGQSPQLLIYKVSNRFSGVPDRFSGSGSGTDFTLKISRVEAEDVGVYYCFQGSHVPLTFGQGTKLEIK
notes: as for B1
Kd [1]: < 0.466 nM | koff [1]: < 1e-05 s⁻¹ | kon [1]: 21500 M⁻¹ s⁻¹ | Kd [2]: 64 nM | koff [2]: 0.00268 s⁻¹ | kon [2]: 41800 M⁻¹ s⁻¹

B7: toripalimab Fab H.M34Y (Fab, V domains shown)
VH: QGQLVQSGAEVKKPGASVKVSCKASGYTFTDYEYHWVRQAPIHGLEWIGVIESETGGTAYNQKFKGRVTITADKSTSTAYMELSSLRSEDTAVYYCAREGITTVATTYYWYFDVWGQGTTVTVSS
VL: DVVMTQSPLSLPVTLGQPASISCRSSQSIVHSNGNTYLEWYLQKPGQSPQLLIYKVSNRFSGVPDRFSGSGSGTDFTLKISRVEAEDVGVYYCFQGSHVPLTFGQGTKLEIK
notes: heavy chain of Sm3 with this change; numbers count from the chain's first residue; as the light chain of Sm3; source: Brevibacillus, culture supernatant (ammonium sulfate precipitate); not shown: 6xHis, C-terminal, kept; 6xHN, C-terminal, kept
Kd [1]: < 0.414 nM | koff [1]: < 1e-05 s⁻¹ | kon [1]: 24200 M⁻¹ s⁻¹ | Kd [2]: 164 nM | koff [2]: 0.00793 s⁻¹ | kon [2]: 48500 M⁻¹ s⁻¹

B8: toripalimab Fab L.V30A (Fab, V domains shown)
VH: QGQLVQSGAEVKKPGASVKVSCKASGYTFTDYEMHWVRQAPIHGLEWIGVIESETGGTAYNQKFKGRVTITADKSTSTAYMELSSLRSEDTAVYYCAREGITTVATTYYWYFDVWGQGTTVTVSS
VL: DVVMTQSPLSLPVTLGQPASISCRSSQSIAHSNGNTYLEWYLQKPGQSPQLLIYKVSNRFSGVPDRFSGSGSGTDFTLKISRVEAEDVGVYYCFQGSHVPLTFGQGTKLEIK
notes: as for B1
Kd [1]: 2.21 nM | koff [1]: 6.23e-05 s⁻¹ | kon [1]: 28200 M⁻¹ s⁻¹ | Kd [2]: 255 nM | koff [2]: 0.00954 s⁻¹ | kon [2]: 37400 M⁻¹ s⁻¹

B9: toripalimab Fab L.Q27A (Fab, V domains shown)
VH: QGQLVQSGAEVKKPGASVKVSCKASGYTFTDYEMHWVRQAPIHGLEWIGVIESETGGTAYNQKFKGRVTITADKSTSTAYMELSSLRSEDTAVYYCAREGITTVATTYYWYFDVWGQGTTVTVSS
VL: DVVMTQSPLSLPVTLGQPASISCRSSASIVHSNGNTYLEWYLQKPGQSPQLLIYKVSNRFSGVPDRFSGSGSGTDFTLKISRVEAEDVGVYYCFQGSHVPLTFGQGTKLEIK
notes: as for B1
Kd [1]: < 0.831 nM | koff [1]: < 1e-05 s⁻¹ | kon [1]: 12000 M⁻¹ s⁻¹ | Kd [2]: 219 nM | koff [2]: 0.00876 s⁻¹ | kon [2]: 40100 M⁻¹ s⁻¹

B10: toripalimab Fab L.S26Y (Fab, V domains shown)
VH: QGQLVQSGAEVKKPGASVKVSCKASGYTFTDYEMHWVRQAPIHGLEWIGVIESETGGTAYNQKFKGRVTITADKSTSTAYMELSSLRSEDTAVYYCAREGITTVATTYYWYFDVWGQGTTVTVSS
VL: DVVMTQSPLSLPVTLGQPASISCRSYQSIVHSNGNTYLEWYLQKPGQSPQLLIYKVSNRFSGVPDRFSGSGSGTDFTLKISRVEAEDVGVYYCFQGSHVPLTFGQGTKLEIK
notes: as for B1
Kd [1]: < 0.573 nM | koff [1]: < 1e-05 s⁻¹ | kon [1]: 17500 M⁻¹ s⁻¹ | Kd [2]: 152 nM | koff [2]: 0.00675 s⁻¹ | kon [2]: 44500 M⁻¹ s⁻¹

B11: toripalimab Fab L.Q27Y (Fab, V domains shown)
VH: QGQLVQSGAEVKKPGASVKVSCKASGYTFTDYEMHWVRQAPIHGLEWIGVIESETGGTAYNQKFKGRVTITADKSTSTAYMELSSLRSEDTAVYYCAREGITTVATTYYWYFDVWGQGTTVTVSS
VL: DVVMTQSPLSLPVTLGQPASISCRSSYSIVHSNGNTYLEWYLQKPGQSPQLLIYKVSNRFSGVPDRFSGSGSGTDFTLKISRVEAEDVGVYYCFQGSHVPLTFGQGTKLEIK
notes: as for B1
Kd [1]: < 0.342 nM | koff [1]: < 1e-05 s⁻¹ | kon [1]: 29200 M⁻¹ s⁻¹ | Kd [2]: 216 nM | koff [2]: 0.0122 s⁻¹ | kon [2]: 56500 M⁻¹ s⁻¹

B12: toripalimab Fab L.S28Y (Fab, V domains shown)
VH: QGQLVQSGAEVKKPGASVKVSCKASGYTFTDYEMHWVRQAPIHGLEWIGVIESETGGTAYNQKFKGRVTITADKSTSTAYMELSSLRSEDTAVYYCAREGITTVATTYYWYFDVWGQGTTVTVSS
VL: DVVMTQSPLSLPVTLGQPASISCRSSQYIVHSNGNTYLEWYLQKPGQSPQLLIYKVSNRFSGVPDRFSGSGSGTDFTLKISRVEAEDVGVYYCFQGSHVPLTFGQGTKLEIK
notes: as for B1
Kd [1]: < 0.792 nM | koff [1]: < 1e-05 s⁻¹ | kon [1]: 12600 M⁻¹ s⁻¹ | Kd [2]: 137 nM | koff [2]: 0.00438 s⁻¹ | kon [2]: 31900 M⁻¹ s⁻¹
